Reference: article PMC3422313

What was measured:
[1] = biological target: p24:V3 CC mutant (chimeric p24:V3 protein with A14C/E45C in the p24 sequence) (HIV) (UniProt P12493); test: cross-linking; disulfide cross-linking by dialysis into assembly buffer (50 mM Tris pH 8, 1 M NaCl) with beta ME reduced to 20 mM or lower; read by non-reducing SDS-PAGE, 10% gel
[2] = biological target: human monoclonal anti-V3 antibody 447-52D (ARP3219) (human); test: SPR; BIAcore 3000; mAb 447-52D immobilised on CM5 by EDC/NHS (about 2000 RU); p24:V3 proteins as analyte 0.10-4.0 uM; HBS (10 mM Hepes, 150 mM NaCl, 3 mM EDTA, pH 7.4), 0.1 mM TCEP; 20 ul/min; 25 C; 1:1 Langmuir fit
[3] = biological target: p24:V3 CCAA mutant (chimeric p24:V3 protein with A14C/E45C/W184A/M185A in the p24 sequence) (HIV); test: SEC; Superdex-200 PC; 30 mM Tris pH 8.0, 300 mM NaCl, 2 mM bME; 0.04 mL/min; compared with aldolase (158 kDa) and ferritin (440 kDa)
[4] = biological target: p24:V3 CCAA mutant (chimeric p24:V3 protein with A14C/E45C/W184A/M185A in the p24 sequence) (HIV); test: cross-linking; disulfide cross-linking by dialysis into assembly buffer (50 mM Tris pH 8, 1 M NaCl) with beta ME reduced to 20 mM or lower; read by non-reducing SDS-PAGE, 10% gel
[5] = biological target: p24:V3 WT chimera (HIV p24 CA protein with the full V3 loop in place of the cyclophillin binding loop) (HIV) (UniProt P12493); test: SEC; Superdex-200 PC; 30 mM Tris pH 8.0, 300 mM NaCl, 2 mM bME; 0.04 mL/min; compared with aldolase (158 kDa) and ferritin (440 kDa)

Sequence of human monoclonal anti-V3 antibody 447-52D (ARP3219) (human) (heavy, as listed by the source, chain 1 of 2): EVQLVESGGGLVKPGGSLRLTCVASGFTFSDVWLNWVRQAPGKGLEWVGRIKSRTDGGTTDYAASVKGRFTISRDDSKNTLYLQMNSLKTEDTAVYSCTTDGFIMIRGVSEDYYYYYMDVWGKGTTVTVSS
Sequence of human monoclonal anti-V3 antibody 447-52D (ARP3219) (human) (light, as listed by the source, chain 2 of 2): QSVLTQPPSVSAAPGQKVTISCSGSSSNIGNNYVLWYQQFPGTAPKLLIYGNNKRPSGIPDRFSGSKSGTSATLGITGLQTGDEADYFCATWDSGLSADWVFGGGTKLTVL

Substance | stoichiometry N [1] | Kd [2] [µM] | stoichiometry N [3] | stoichiometry N [4] | stoichiometry N [5]
p24:V3 CC mutant (chimeric p24:V3 protein with A14C/E45C in the p24 sequence) (from UniProt P12493 101-500) | 6 | 13.4 | – | – | –
p24:V3 CCAA mutant (chimeric p24:V3 protein with A14C/E45C/W184A/M185A in the p24 sequence) | – | – | 6 | 6 | –
p24:V3 WT chimera (HIV p24 CA protein with the full V3 loop in place of the cyclophillin binding loop) (from UniProt P12493 1-85; P12493 101-500) | – | 10.1 | – | – | 6
